This data set is described as follows: self-splicing fitness, log relative to wild type (ln ratio); higher = more splicing; Tetrahymena group I intron in knt gene, E. coli kanamycin selection, DiMSum; sequences stand for … in CUCUCU…GGAGGGAAAAGUUAUCAGGCAUGCACCUGGUAGCUAGUCUUUAAACCAAUAGAUUGCAUCGGUUUAAAAGGCAAGACCGUCAAAUUGCGGGAAAGGGGUCAACAGCCGUUCAGUACCAAGUCUCAGGGGAAACUUUGAGAUGGCCUUGCAAAGGGUAUGGUAAUAAGCUGACGGACAUGGUCCUAACCACGCAGCCAAGUCCUAAGUCAACAGAUCUUCUGUUGAUAUGGAUGCAGUUCACAGACUAAAUGUCGGUCGGGGAAGAUGUAUUCUUCUCAUAAGAUAUAGUCGGACCUCUCCUUAAUGGGAGCUAGCGGAUGAAGUGAUGCAACACUGGAGCCGCUGGGAACUAAUUUGUAUGCGAAAGUAUAUUGAUUAGUUUUGGAGUACUCGUGGUCG
The essentials: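 Fitness was computed with DiMSum as the error-weighted combination of replicate fold changes, kanamycin versus none, each normalised to wild type. The library randomised all eight intron nucleotides of the P1ex region, with the intron placed in the knt kanamycin-resistance gene on pET-22b(+) in E. coli BL21(DE3). Six replicate transformations were grown overnight at 37°C or 30°C on LB agar with or without 25 μg/mL kanamycin, plus 100 μg/mL carbenicillin, 50 μM IPTG and 0.2% rhamnose. Pooled colonies were amplicon-sequenced on an Illumina HiSeq 2500.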

Here are results for 62 sequences from the supplement of paper PMC7877785.

± gives the uncertainty stated by the source.

On to UUGUAGCAAUAUUACGUUGU, for which the “self-splicing fitness (ln)” value is, setting by setting: (30 °C) -3.77 ± 0.27; (37 °C) -2.81 ± 0.24.
Taken in the same sequence, the figures for AUCAAGCAAUAUUACGGACA were -0.967 ± 0.075 and -0.478 ± 0.093.
Taken in the same sequence, the figures for CCAAAGCAAUAUUACGUGCA were -2.81 ± 0.18 and -2.9 ± 0.23.
Regarding CACGAGCAAUAUUACGAACA, the “self-splicing fitness (ln)” value (37 °C) is -2.04 ± 0.47.
For the sequence UGUAAGCAAUAUUACGUGUG, the “self-splicing fitness (ln)” value by setting is: (30 °C) -1.04 ± 0.085; (37 °C) -0.237 ± 0.095.
With GCCAAGCAAUAUUACGGGAA, the “self-splicing fitness (ln)” value by setting is: (30 °C) -0.356 ± 0.064; (37 °C) -0.585 ± 0.079.
Taken in the same sequence, the figures for GUCAAGCAAUAUUACGUGGU were -4.8 ± 0.3 and -3.09 ± 0.16.
Taken in the same sequence, the figures for GAACAGCAAUAUUACGACCU were -0.509 ± 0.099 and -0.0216 ± 0.13.
For UUCAAGCAAUAUUACGACUG, the “self-splicing fitness (ln)” value is -2.38 ± 0.15 (30 °C) and -1.33 ± 0.12 (37 °C).
As to AAGGAGCAAUAUUACGCUGA, the “self-splicing fitness (ln)” value by setting is: (30 °C) -3.54 ± 0.23; (37 °C) -1.44 ± 0.15.
Taken in the same sequence, the figures for CUCAAGCAAUAUUACGCGAC were -1.93 ± 0.16 and -1.45 ± 0.19.
For the sequence ACACAGCAAUAUUACGGCUC, the “self-splicing fitness (ln)” value by setting is: (30 °C) -0.896 ± 0.067; (37 °C) -0.461 ± 0.088.
As to UCGCAGCAAUAUUACGCCCG, the “self-splicing fitness (ln)” value (30 °C) is -1.51 ± 0.35.
CUCUAGCAAUAUUACGGUAG: the “self-splicing fitness (ln)” value (30 °C) was -4.49 ± 0.33 and the “self-splicing fitness (ln)” value (37 °C) is -1.79 ± 0.23.
Taken in the same sequence, the figures for GCGCAGCAAUAUUACGACUC were -0.32 ± 0.17 and 0.304 ± 0.15.
Taken in the same sequence, the figures for AGUCAGCAAUAUUACGUUCU were -0.318 ± 0.072 and 0.0939 ± 0.11.
Consider GCUAAGCAAUAUUACGACAG, for which the “self-splicing fitness (ln)” value runs as follows: (30 °C) -2.67 ± 0.17; (37 °C) -2.51 ± 0.32.
As for UAACAGCAAUAUUACGUAUU, the “self-splicing fitness (ln)” value runs as follows: (30 °C) -3.38 ± 0.14; (37 °C) -1.94 ± 0.18.
Taken in the same sequence, the figures for GUUCAGCAAUAUUACGAACA were -2.43 ± 0.26 and -1.45 ± 0.22.
Taken in the same sequence, the figures for GGUAAGCAAUAUUACGUAAG were -2.85 ± 0.16 and -2.17 ± 0.17.
Taken in the same sequence, the figures for AUGCAGCAAUAUUACGGCCA were -0.753 ± 0.14 and 0.267 ± 0.14.
For the sequence ACGGAGCAAUAUUACGAGGG, the “self-splicing fitness (ln)” value is -3.45 ± 0.25 (30 °C) and -2.82 ± 0.32 (37 °C).
Taken in the same sequence, the figures for GCGUAGCAAUAUUACGCUCC were -1.88 ± 0.2 and -0.401 ± 0.39.
For the sequence AACUAGCAAUAUUACGACAG, the “self-splicing fitness (ln)” value is -1.7 ± 0.14 (30 °C) and -0.514 ± 0.13 (37 °C).
Consider UGCGAGCAAUAUUACGGACA, for which the “self-splicing fitness (ln)” value is -0.643 ± 0.14 (30 °C) and 0.226 ± 0.2 (37 °C).
For UAUGAGCAAUAUUACGCCAA, the “self-splicing fitness (ln)” value (37 °C) was -2.51 ± 0.37.
Consider AUUGAGCAAUAUUACGCUUU, for which the “self-splicing fitness (ln)” value reads like this: (30 °C) -2.92 ± 0.24; (37 °C) -1.29 ± 0.26.
Taken in the same sequence, the figures for CACUAGCAAUAUUACGGAUA were -2.41 ± 0.28 and -2.22 ± 0.28.
Consider UGGGAGCAAUAUUACGAGUA, for which the “self-splicing fitness (ln)” value is -3.85 ± 0.43 (30 °C) and -2.59 ± 0.44 (37 °C).
GUCCAGCAAUAUUACGGUCU: the “self-splicing fitness (ln)” value is -2.7 ± 0.12 (30 °C) and -1.2 ± 0.12 (37 °C).
Regarding CAUGAGCAAUAUUACGAAGC, the “self-splicing fitness (ln)” value (37 °C) was -0.241 ± 0.49.
With CGAAAGCAAUAUUACGAUUG, the “self-splicing fitness (ln)” value is -0.934 ± 0.074 (30 °C) and -0.262 ± 0.1 (37 °C).
Taken in the same sequence, the figures for CAAAAGCAAUAUUACGCUUG were -3.3 ± 0.15 and -2.35 ± 0.19.
In the case of UCUGAGCAAUAUUACGAAUG, the “self-splicing fitness (ln)” value is, setting by setting: (30 °C) -2.96 ± 0.26; (37 °C) -1.66 ± 0.21.
As for UUGCAGCAAUAUUACGCACC, the “self-splicing fitness (ln)” value (30 °C) is -0.223 ± 0.47.
In the case of CGAGAGCAAUAUUACGUAUC, the “self-splicing fitness (ln)” value is -3.63 ± 0.25 (30 °C) and -1.87 ± 0.38 (37 °C).
Regarding UUAGAGCAAUAUUACGCGGC, the “self-splicing fitness (ln)” value (37 °C) is -0.994 ± 0.26.
On to GUUCAGCAAUAUUACGAGAA, for which the “self-splicing fitness (ln)” value (30 °C) was -1.81 ± 0.49 and the “self-splicing fitness (ln)” value (37 °C) is -2.14 ± 0.31.
Turning to UUUAAGCAAUAUUACGUACG, the “self-splicing fitness (ln)” value runs as follows: (30 °C) -0.346 ± 0.16; (37 °C) 0.322 ± 0.17.
Take CAUCAGCAAUAUUACGCUCU: the “self-splicing fitness (ln)” value is -3.31 ± 0.19 (30 °C) and -1.66 ± 0.17 (37 °C).
As for ACGCAGCAAUAUUACGGUCC, the “self-splicing fitness (ln)” value was -2.36 ± 0.14 (30 °C) and -1.01 ± 0.13 (37 °C).
Taken in the same sequence, the figures for AAUAAGCAAUAUUACGGACC were -1.54 ± 0.12 and -0.72 ± 0.15.
Taken in the same sequence, the figures for GAUCAGCAAUAUUACGCACC were -0.91 ± 0.18 and -0.086 ± 0.23.
Taken in the same sequence, the figures for GGCAAGCAAUAUUACGGGGG were -2.86 ± 0.16 and -2.54 ± 0.22.
Turning to AGCAAGCAAUAUUACGGGCC, the “self-splicing fitness (ln)” value was -3.26 ± 0.23 (30 °C) and -2.32 ± 0.22 (37 °C).
Consider GCGAAGCAAUAUUACGGAGC, for which the “self-splicing fitness (ln)” value runs as follows: (30 °C) -2.69 ± 0.16; (37 °C) -2.52 ± 0.21.
In the case of GAUAAGCAAUAUUACGCAAC, under “37 °C”, the “self-splicing fitness (ln)” value was -0.343 ± 0.46.
For the sequence CAGGAGCAAUAUUACGCUAA, the “self-splicing fitness (ln)” value is -3.29 ± 0.5 (30 °C) and -1.19 ± 0.41 (37 °C).
Take AAUUAGCAAUAUUACGACCA: the “self-splicing fitness (ln)” value runs as follows: (30 °C) -0.406 ± 0.1; (37 °C) 0.48 ± 0.12.
Taken in the same sequence, the figures for UUGAAGCAAUAUUACGAGCU were -1.76 ± 0.16 and -1.02 ± 0.19.
Regarding CUCAAGCAAUAUUACGCCGU, the “self-splicing fitness (ln)” value (30 °C) was -3.42 ± 0.17 and the “self-splicing fitness (ln)” value (37 °C) was -1.88 ± 0.15.
Regarding CCUGAGCAAUAUUACGCGAU, the “self-splicing fitness (ln)” value (30 °C) is -3.71 ± 0.18 and the “self-splicing fitness (ln)” value (37 °C) is -2.25 ± 0.14.
As for CGGUAGCAAUAUUACGAUGC, the “self-splicing fitness (ln)” value by setting is: (30 °C) -3.7 ± 0.2; (37 °C) -0.598 ± 0.13.
Taken in the same sequence, the figures for CAACAGCAAUAUUACGUAAG were -0.309 ± 0.044 and 0.376 ± 0.055.
Taken in the same sequence, the figures for GACCAGCAAUAUUACGUUGU were -1.11 ± 0.047 and -0.336 ± 0.063.
Taken in the same sequence, the figures for GACCAGCAAUAUUACGAGAU were -2.62 ± 0.12 and -1.05 ± 0.084.
Consider AUCCAGCAAUAUUACGAAGA, for which the “self-splicing fitness (ln)” value by setting is: (30 °C) -1.56 ± 0.18; (37 °C) -1.64 ± 0.16.
Take UCCUAGCAAUAUUACGUAGC: the “self-splicing fitness (ln)” value is -3.05 ± 0.14 (30 °C) and -2.23 ± 0.16 (37 °C).
Taken in the same sequence, the figures for UGUGAGCAAUAUUACGGAUG were -3.1 ± 0.17 and -1.52 ± 0.23.
Taken in the same sequence, the figures for CAUUAGCAAUAUUACGACUG were -0.158 ± 0.079 and 0.262 ± 0.092.
For the sequence ACGGAGCAAUAUUACGAUGU, the “self-splicing fitness (ln)” value was -3.19 ± 0.2 (30 °C) and -2.52 ± 0.27 (37 °C).
Taken in the same sequence, the figures for CCGUAGCAAUAUUACGGCUA were -3.49 ± 0.34 and -3.04 ± 0.35.
